Source: the supplement of paper PMC10065799, “High-throughput profiling of sequence recognition by tyrosine kinases and SH2 domains using bacterial peptide display” (eLife, 2023)

Legend:
[1] = molecular target: FGFR3 (UniProt P22607); assay: phosphorylation enrichment, bacterial display (enrichment ratio); higher = better substrate or ligand; peptides without Tyr show the background
[2] = test system: AncSZ; assay: as above
[3] = molecular target: Fyn (UniProt P06241); assay: as above
[4] = molecular target: EPHB1 (UniProt P54762); assay: as above
[5] = test system: Fer (mouse); assay: as above
[6] = molecular target: EPHB2 (UniProt P29323); assay: as above
[7] = molecular target: Hck (UniProt P08631); assay: as above
[8] = test system: c-Src; assay: as above
[9] = molecular target: Jak2 (UniProt O60674); assay: as above
[10] = molecular target: FGFR1 (UniProt P11362); assay: as above
[11] = molecular target: MERTK (UniProt Q12866); assay: as above
[12] = molecular target: Fes (UniProt P07332); assay: as above
[13] = test system: c-Abl (mouse); assay: as above
[14] = molecular target: SHP2-C SH2; assay: SH2 binding enrichment of the phosphorylated peptide, bacterial display (enrichment ratio); higher = better substrate or ligand; peptides without Tyr show the background
[15] = molecular target: Grb2 SH2 (UniProt P62993); assay: as above
[16] = molecular target: c-Src SH2; assay: as above
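Wherever SH2 binding enrichment of the phosphorylated peptide, bacterial display is given: peptide library displayed on the E. coli surface as eCPX fusions, selected cells deep-sequenced, score is each peptide's frequency after selection divided by its frequency in the input.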
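Wherever phosphorylation enrichment, bacterial display is given: 11-residue human phosphosite peptides and single-mutation variants displayed on the E. coli surface, counted by deep sequencing, each peptide's frequency after selection divided by its frequency in the unselected input library; frequency after pTyr selection over input frequency; kinase dosed for 20-30% of maximal phosphorylation in three min.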

Chain of Grb2 SH2 (P62993 whole entry, looked up): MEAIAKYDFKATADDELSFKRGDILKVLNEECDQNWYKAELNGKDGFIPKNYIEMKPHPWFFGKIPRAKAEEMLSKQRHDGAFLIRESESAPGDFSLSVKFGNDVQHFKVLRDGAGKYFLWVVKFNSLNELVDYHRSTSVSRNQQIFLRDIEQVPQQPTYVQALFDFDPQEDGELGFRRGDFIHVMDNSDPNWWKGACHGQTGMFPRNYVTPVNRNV
Chain of EPHB2 (P29323 whole entry, looked up): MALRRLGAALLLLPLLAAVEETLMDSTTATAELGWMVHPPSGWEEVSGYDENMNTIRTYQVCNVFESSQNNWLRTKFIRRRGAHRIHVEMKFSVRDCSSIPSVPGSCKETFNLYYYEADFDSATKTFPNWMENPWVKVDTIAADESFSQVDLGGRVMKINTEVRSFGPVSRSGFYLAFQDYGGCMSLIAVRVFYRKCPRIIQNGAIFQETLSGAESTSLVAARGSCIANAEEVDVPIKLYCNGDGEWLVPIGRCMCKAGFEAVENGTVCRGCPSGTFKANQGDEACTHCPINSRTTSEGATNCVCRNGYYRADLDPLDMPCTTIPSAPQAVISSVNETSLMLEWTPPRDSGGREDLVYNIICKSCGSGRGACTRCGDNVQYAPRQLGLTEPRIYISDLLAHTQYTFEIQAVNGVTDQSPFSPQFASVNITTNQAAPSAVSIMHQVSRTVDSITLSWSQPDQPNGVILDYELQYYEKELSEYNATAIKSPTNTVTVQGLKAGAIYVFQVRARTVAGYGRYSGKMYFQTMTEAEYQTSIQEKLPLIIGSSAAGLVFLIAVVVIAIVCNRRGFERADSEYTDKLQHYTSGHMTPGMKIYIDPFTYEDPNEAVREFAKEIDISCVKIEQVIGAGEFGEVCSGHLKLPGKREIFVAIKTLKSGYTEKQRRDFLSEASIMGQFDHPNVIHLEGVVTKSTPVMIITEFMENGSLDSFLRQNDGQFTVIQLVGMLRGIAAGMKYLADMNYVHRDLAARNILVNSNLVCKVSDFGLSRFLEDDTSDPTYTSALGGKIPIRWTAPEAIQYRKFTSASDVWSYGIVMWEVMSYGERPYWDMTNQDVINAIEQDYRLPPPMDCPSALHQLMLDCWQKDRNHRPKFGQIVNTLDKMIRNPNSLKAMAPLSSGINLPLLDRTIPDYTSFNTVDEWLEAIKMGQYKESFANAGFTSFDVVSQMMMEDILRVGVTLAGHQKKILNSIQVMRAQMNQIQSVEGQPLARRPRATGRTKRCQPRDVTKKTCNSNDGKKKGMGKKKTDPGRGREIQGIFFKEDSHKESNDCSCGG
Chain of Hck (P08631 whole entry, looked up): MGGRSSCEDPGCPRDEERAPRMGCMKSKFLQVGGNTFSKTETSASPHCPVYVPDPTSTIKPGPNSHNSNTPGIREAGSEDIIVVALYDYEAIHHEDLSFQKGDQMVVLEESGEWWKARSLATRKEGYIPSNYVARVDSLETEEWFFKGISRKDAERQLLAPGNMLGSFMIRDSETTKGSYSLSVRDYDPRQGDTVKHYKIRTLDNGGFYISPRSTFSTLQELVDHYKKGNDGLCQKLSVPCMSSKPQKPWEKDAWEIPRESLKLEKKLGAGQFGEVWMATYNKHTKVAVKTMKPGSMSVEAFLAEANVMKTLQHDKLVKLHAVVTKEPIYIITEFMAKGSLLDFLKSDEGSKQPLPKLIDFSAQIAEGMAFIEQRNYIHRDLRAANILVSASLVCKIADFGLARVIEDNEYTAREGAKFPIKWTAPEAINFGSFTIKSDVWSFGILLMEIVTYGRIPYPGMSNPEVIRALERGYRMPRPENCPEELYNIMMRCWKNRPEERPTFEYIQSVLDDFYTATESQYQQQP
Chain of FGFR1 (P11362 whole entry, looked up): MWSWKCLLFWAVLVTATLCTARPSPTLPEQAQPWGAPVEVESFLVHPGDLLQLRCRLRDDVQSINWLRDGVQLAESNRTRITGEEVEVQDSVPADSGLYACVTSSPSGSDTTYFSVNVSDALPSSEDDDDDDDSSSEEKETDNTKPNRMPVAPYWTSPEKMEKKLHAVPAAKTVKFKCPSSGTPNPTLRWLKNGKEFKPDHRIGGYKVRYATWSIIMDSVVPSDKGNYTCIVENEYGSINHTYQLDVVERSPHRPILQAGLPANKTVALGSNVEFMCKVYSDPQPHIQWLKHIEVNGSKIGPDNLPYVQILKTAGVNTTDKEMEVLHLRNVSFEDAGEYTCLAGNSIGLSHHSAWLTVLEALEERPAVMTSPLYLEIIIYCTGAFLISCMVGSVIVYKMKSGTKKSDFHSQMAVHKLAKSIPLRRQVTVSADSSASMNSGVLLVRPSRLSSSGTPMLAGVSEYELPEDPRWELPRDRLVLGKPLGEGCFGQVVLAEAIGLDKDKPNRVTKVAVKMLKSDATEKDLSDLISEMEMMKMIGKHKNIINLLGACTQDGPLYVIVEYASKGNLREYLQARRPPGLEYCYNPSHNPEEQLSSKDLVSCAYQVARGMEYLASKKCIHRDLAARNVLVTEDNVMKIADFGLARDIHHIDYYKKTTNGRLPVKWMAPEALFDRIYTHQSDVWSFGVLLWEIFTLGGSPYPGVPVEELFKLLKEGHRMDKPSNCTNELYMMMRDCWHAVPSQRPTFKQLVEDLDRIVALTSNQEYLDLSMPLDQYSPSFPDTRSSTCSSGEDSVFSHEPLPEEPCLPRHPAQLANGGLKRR
Chain of Fes (P07332 whole entry, looked up): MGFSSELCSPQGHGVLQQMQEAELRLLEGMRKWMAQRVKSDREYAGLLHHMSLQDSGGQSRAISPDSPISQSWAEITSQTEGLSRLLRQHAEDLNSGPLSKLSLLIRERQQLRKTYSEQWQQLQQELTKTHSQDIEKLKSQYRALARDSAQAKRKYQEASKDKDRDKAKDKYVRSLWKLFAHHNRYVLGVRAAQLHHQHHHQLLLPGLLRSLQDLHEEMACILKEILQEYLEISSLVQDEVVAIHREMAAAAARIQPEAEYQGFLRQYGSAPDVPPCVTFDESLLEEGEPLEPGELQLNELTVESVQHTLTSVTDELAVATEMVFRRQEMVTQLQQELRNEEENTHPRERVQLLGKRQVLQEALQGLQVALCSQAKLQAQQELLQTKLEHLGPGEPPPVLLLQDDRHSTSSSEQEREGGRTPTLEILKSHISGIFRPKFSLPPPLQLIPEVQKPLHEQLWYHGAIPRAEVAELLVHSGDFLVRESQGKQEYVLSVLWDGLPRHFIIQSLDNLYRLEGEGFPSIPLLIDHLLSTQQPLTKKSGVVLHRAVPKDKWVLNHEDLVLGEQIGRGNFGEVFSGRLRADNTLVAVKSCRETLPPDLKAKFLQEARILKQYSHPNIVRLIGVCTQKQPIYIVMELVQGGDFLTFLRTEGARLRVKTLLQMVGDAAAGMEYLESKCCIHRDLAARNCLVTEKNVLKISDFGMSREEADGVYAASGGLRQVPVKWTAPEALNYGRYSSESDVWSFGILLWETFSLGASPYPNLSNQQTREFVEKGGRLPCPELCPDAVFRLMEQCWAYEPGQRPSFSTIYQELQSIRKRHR
Chain of Jak2 (O60674 whole entry, looked up): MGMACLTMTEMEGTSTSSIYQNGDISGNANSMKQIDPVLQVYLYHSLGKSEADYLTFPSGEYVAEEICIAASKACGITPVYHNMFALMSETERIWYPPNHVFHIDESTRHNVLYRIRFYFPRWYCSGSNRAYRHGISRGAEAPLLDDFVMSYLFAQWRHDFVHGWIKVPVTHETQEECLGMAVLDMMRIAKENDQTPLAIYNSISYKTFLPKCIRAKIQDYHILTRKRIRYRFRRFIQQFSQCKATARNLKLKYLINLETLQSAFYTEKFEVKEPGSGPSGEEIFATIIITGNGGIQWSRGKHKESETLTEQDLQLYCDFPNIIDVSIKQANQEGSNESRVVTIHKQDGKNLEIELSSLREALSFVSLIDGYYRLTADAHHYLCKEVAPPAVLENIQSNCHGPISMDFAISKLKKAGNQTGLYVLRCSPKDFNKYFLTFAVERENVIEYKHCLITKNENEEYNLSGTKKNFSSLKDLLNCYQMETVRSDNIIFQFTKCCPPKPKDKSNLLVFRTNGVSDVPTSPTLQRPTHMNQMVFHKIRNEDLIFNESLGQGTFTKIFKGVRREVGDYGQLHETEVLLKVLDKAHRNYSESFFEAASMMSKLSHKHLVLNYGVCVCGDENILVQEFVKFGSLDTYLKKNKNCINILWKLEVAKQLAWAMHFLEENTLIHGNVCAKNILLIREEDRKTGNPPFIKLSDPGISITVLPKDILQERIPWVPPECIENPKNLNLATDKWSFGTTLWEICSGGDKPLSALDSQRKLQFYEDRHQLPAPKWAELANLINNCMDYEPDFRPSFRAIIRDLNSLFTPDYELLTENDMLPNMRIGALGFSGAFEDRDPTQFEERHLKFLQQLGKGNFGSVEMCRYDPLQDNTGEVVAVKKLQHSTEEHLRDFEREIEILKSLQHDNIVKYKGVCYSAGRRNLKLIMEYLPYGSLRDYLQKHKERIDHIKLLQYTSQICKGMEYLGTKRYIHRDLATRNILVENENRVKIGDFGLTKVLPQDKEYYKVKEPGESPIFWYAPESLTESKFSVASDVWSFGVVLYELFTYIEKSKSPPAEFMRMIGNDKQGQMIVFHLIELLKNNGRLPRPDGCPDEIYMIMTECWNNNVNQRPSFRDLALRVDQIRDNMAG

Sequence | phosphorylation enrichment [1] | phosphorylation enrichment [2] | phosphorylation enrichment [3] | phosphorylation enrichment [4] | phosphorylation enrichment [5] | phosphorylation enrichment [6] | phosphorylation enrichment [7] | phosphorylation enrichment [8] | phosphorylation enrichment [9] | phosphorylation enrichment [10] | phosphorylation enrichment [11] | phosphorylation enrichment [12] | phosphorylation enrichment [13] | SH2 binding enrichment [14] | SH2 binding enrichment [15] | SH2 binding enrichment [16]
PQAVRYIFTID [DCX_Y103_G100A_YF] | 0.841 | 1.15 | 0.639 | 1.29 | 0.524 | 0.59 | 0.673 | 0.385 | 0.806 | 1.01 | 0.595 | 1.76 | 0.863 | 3.09 | 1.53 | 1.54
PQAVTYAEVKH [LILRB4_Y360_K362E] | 0.625 | 0.872 | 5.58 | 1.94 | 0.804 | 1.16 | 4.17 | 4.89 | 0.867 | 0.692 | 0.617 | 1.03 | 0.763 | 32.9 | 0.83 | 2.73
PQDSAYHSGIQ [FLG_Y3940_S3935P] | 0.522 | 0.651 | 0.459 | 0.652 | 0.419 | 0.49 | 0.486 | 0.553 | 0.598 | 0.534 | 0.445 | 0.755 | 1.69 | 0.613 | 0.787 | 0.437
PQEVMYAQLDH [KIR3DL2_Y398_T397M] | 2.2 | 1.62 | 6.26 | 1.06 | 4.04 | 0.621 | 5.19 | 7.15 | 1.71 | 2.69 | 6.77 | 1.52 | 7.37 | 6.57 | 0.748 | 1.21
PRAEWYRDDLL [MYOM2_Y317_V321L] | 0.626 | 1.49 | 0.612 | 0.692 | 0.502 | 0.726 | 0.681 | 0.575 | 0.952 | 0.591 | 0.511 | 1.4 | 0.798 | 0.716 | 1.15 | 0.686
PSAELYSFALP [PDGFRB_Y716_N718Y_YF] | 5.36 | 2.77 | 7.74 | 10.7 | 17.4 | 11.8 | 6.93 | 7.32 | 1.03 | 6.2 | 13.2 | 1.28 | 1.51 | 0.631 | 0.911 | 0.546
PSAVAYPKRSQ [MARK3_Y432_V429A] | 0.545 | 0.697 | 0.563 | 0.544 | 0.444 | 0.563 | 0.441 | 0.696 | 0.577 | 0.382 | 0.685 | 0.818 | 0.615 | 0.646 | 1.06 | 0.473
PSDLLYILDIQ [ITGA2B_Y845] | 1.91 | 2.77 | 2.82 | 1.07 | 1.32 | 1.06 | 1.57 | 4.22 | 2.24 | 1.35 | 2.82 | 2.33 | 1.17 | 0.492 | 1.19 | 0.571
PSQRRNVFFFS [PTEN_Y174_Y174N_YF] | 0.777 | 1.31 | 0.924 | 0.559 | 0.493 | 0.342 | 1.41 | 0.591 | 0.54 | 1.07 | 0.571 | 1.23 | 0.817 | 1.09 | 0.769 | 0.613
PSRKDYETFQP [CTNND2_Y1154_YF] | 0.667 | 1.22 | 0.605 | 1.04 | 0.473 | 1.52 | 0.73 | 0.737 | 1.11 | 0.558 | 0.572 | 1.21 | 0.907 | 0.372 | 0.884 | 0.645
PTFEHYANSTQ [SLC12A3_Y70_YF] | 0.988 | 1.34 | 0.852 | 0.768 | 1.14 | 0.993 | 0.598 | 0.433 | 0.742 | 0.818 | 0.771 | 1.07 | 0.742 | 0.576 | 1.43 | 1.09
PTKNDYWAMPA [WWOX_Y287_L291P] | 16.3 | 2.02 | 0.987 | 18.6 | 0.469 | 14.4 | 1.82 | 0.952 | 2.69 | 20.6 | 5.26 | 1.03 | 1.39 | 0.669 | 0.732 | 0.586
PTTMTYFPHFD [HBA1_Y43_K41M] | 2.32 | 0.823 | 0.554 | 0.603 | 0.521 | 0.577 | 0.951 | 0.754 | 1.61 | 2.97 | 0.802 | 1.01 | 0.859 | 0.782 | 1.13 | 0.658
PTYKHYANSTQ [SLC12A3_Y70_E68K] | 0.466 | 0.39 | 0.542 | 0.391 | 0.448 | 0.418 | 0.434 | 0.422 | 0.593 | 0.529 | 0.442 | 0.592 | 0.44 | 0.768 | 0.702 | 0.56
PYRSIYFSSPK [MPG_Y75] | 0.856 | 0.878 | 1.03 | 0.519 | 0.72 | 0.582 | 1.09 | 0.903 | 0.657 | 0.778 | 0.835 | 0.648 | 0.887 | 1.34 | 0.952 | 0.594
QADVVYVNTQL [MERTK_Y872_I871V] | 0.648 | 0.822 | 0.729 | 0.66 | 3.51 | 1.17 | 0.729 | 0.738 | 0.728 | 0.88 | 0.372 | 1.8 | 0.631 | 1.43 | 4.29 | 0.718
QAPPIYLDVLG [NTRK1_Y791_V790I] | 2.38 | 1.31 | 1.46 | 13.6 | 3.26 | 3.26 | 2.11 | 1.71 | 1.21 | 3.35 | 3.35 | 0.952 | 0.878 | 0.734 | 0.791 | 0.413
